Data reported in article doi:10.1101/2025.11.26.690765.
pKd: −log10 of the molar value.

Molecular target: 4-1BB (Acro) (Homo sapiens (assumed)) (UniProt Q07011)
Assay: SPR

## Urelumab, variable domains in human IgG1 expression vectors (antibody)
  pKd: 8.10
